The data set is described as follows: soluble on expression in E. coli; label from the status in PepcDB or PDB records.
As to “MGLQSLKEPVENSVQDEFSHFWSQHGEWVEEPNVRRGGESGVQRLVMDNGQTLYAKRQTGHIYRSLLHPLGRPTVLREREALEGLRKLGVVVPEVVFCGAERGEDNAWRALLVTVALDGFDEIEKWLAAGGRERHGELFYERMLKEVASTLARMHLGRWQHSCLYIKHVFVRVTGDGPDAKVEVALLDLEKGRRRLTAQGAAQHDMKQLRRHSSFSAADWQKLVYFYQTAFGSSIKGLES”, the “soluble on expression in E. coli” value is on record as “not soluble”.

As to “MGLSATIMEAEPEGRKRPGSRAIYFHKATLIHLESIFPGLGYTLAKNGLVWPIKRTFFRGKEVFVKDYGPTDPNQLPPFTSLPQDRAEQFMFDACLQAGVEFVWKTPIRQVETSPAGATLTTKAGDVWSADYVIGADGARSSVRTTAGMKLEGPRTNDTFLVVDVKEDEESPLPLERVFHYEHPAMGGRNVMFVPFVGGWRVDLQLLEHDDPEEYSHPEGVRRWIQKVMPAKYGERVTWVSTYRFHQVVADSFTDQHGKVLLAGEAAHLFAPFGARGLNSGTPDAIKAAQGIHTALSARDDQAAKQAIFAAAHERRIAALWNRDCSSTALEHLQGLEHHHHHH”, the “soluble on expression in E. coli” value is “not soluble”.

As for “MGLTIPVILNSVNNLSDARYAAGMGVEFMGFEVEASGERYVSPDLYKAITAWLSGVQTVTELAVLTPAVLTTIQEQYQPDFIQFESVEGISQSDLADLPCIQKIIISTGQEAKIFNNLAQYIFSEANYVLLELSDWTNWTEFQQLITEINTAYPVIWSLPIEKEDAALIQEIELKGISLKGGDEQRPGWKDLDQLIDILEALEEN”, the “soluble on expression in E. coli” value was “not soluble”.

Consider “MGMACLTMTEMEATSTSPVHQNGDIPGSANSVKQIEPVLQVYLYHSLGQAEGEYLKFPSGEYVAEEICVAASKACGITPVYHNMFALMSETERIWYPPNHVFHIDESTRHDILYRIRFYFPHWYCSGSSRTYRYGVSRGAEAPLLDDFVMSYLFAQWRHDFVHGWIKVPVTHETQEECLGMAVLDMMRIAKEKDQTPLAVYNSVSYKTFLPKCVRAKIQDYHILTRKRIRYRFRRFIQQFSQCKATARNLKLKYLINLETLQSAFYTEQFEVKESARGPSGEEIFATIIITGNGGIQWSRGKHKESETLTEQDVQLYCDFPDIIDVSIKQANQECSNESRIVTVHKQDGKVLEIELSSLKEALSFVSLIDGYYRLTADAHHYLCKEVAPPAVLENIHSNCHGPISMDFAISKLKKAGNQTGLYVLRCSPKDFNKYFLTFAVERENVIEYKHCLITKNENGEYNLSGTKRNFSNLKDLLNCYQMETVRSDSIIFQFTKCCPPKPKDKSNLLVFRTNGISDVQISPTLQRHNNVNQMVFHKIRNEDL”, for which the “soluble on expression in E. coli” value is on record as “not soluble”.

On to “MGMLGLDLLKEVPGLLEEIKALPLRLDEERFRFWLQQDYPFVEALYRYQVGLLLEAPQAHRAPLVQALMATVEELDWLLLQGASPSAPVHPVRAGYIALLEEMGRLPYAYRVVFFYFLNGLFLEAWAHHVPEEGPWAELSQHWFAPEFQAVLYDLEVLARGLWEDLDPEVVRTYLRRILEAEKATWSLLL”, for which the “soluble on expression in E. coli” value is “soluble”.

For the sequence “MGNAGESKKSNSDSAKGEEKASGSLTISGSSAMQPLVLAAAEKFMEENPDADIQVQAGGSGTGLSQVSEGAVQIGNSDVFAEEKEGIDAKALVDHQVAVVGMAAAVNPDAGVKDISKDELKKIFTGKIKNWKELGGKDQKITLVNRPDSSGTRATFVKYALDGAEPAEGITEDSSNTVKKIIADTPGAIGYLAFSYLTDDKVTALSIDGVKPEAKNVATGEYPIWAYQHSYTKGEATGLAKEFLDYLKSEDIQKSIVTDQGYIPVTDMKVTRDANGKQSLEHHHHHH”, the “soluble on expression in E. coli” value is “not soluble”.

Turning to “MGNIIRIGMADLKASHHPAILTTLGLGSCVGIALYDRTTKIVGLAHAMLPDSSQVKNKTNAAKFVDTAIELLVKEMLSLGASKKRIVAKLAGGAQMFTFTQGAELMRIGQRNVAAAKSKLESLDIPVVSEDTGGNYGRTVELDSESGMLLIRTIGYGTKQI”, the “soluble on expression in E. coli” value is recorded as “not soluble”.

For “MGNKAERHRAIQEIVRREEIGTQKELVERLRQLGFEVTQATVSRDIAELGLARIALGKGRHRYVLPAADLPENAYEELKRQFGLFVRDVDRGGNLLVVKTAEGHASGIAYLLDRLRRDEIVGTLAGDDTILVVARTEEAAQALEDEFAGLLVEGRALRRALSGS”, the “soluble on expression in E. coli” value is reported as “soluble”.

Take “MGNRSSSHYPPPPHWMHQRTSYSTTTSPYPEAKQRPIAPGAFAEPYMHHNPHHPQSKAQMRRSMISLNADSGYMGGPDSERLRQMRGSRMSLNQIDFEPAMMPPPRILIPPDAKTLKKLEKMEKKHQKLMKKLGARGIPIQMPVPPPPPMHPMYSRAISYDDLHRMHEAPEIDVRMRQRDWRTSDERRGLPTRRETQSQYVKHNYSSTNRRAELNGSLASSSPMTSSEEGGHSSDPWNTSSISSGKRDIISPPMYSSTPHHHNHHNHQQLQHHQVIKSPQPPITKTIEVKVERSEKVEQQVSEPTKRAPPTAAQTASSTSSRIQHNQTLNNSNATYAQPIIRRQPSYGSRSSSIATSQMRCDQSEIDFSWVNEEEDKLKRESKRIDSLPEFYFGMDPPPVPSDNEKENDEKRNRRKSSVLEKTAAFEIEARRNDRKEPSFLSRSSHQLLTTSEIPPADYSPLSIHTKEIGGPAERRIYRIQKQQQQHSSEDRRYRSSIAF”: the “soluble on expression in E. coli” value is recorded as “not soluble”.

As to “MGNTAMWMSCNPTIPILFGIQVKIFPLNQIFNHIHPARYAVTFENNVDSKLRRHWVAGATIRIIDRQTDEVIAKKTIYVFEKGLDGTGGARMPWKFAILCNKERLTSSEPLSDFVLSVLKPYILRPLYIASLRRDD”, the “soluble on expression in E. coli” value is reported as “not soluble”.

Consider “MGPAKKKKKGKEKKFRRELGSWSAVELEKFIEYKAEDAGKKVIYINPKYSPQKCSRCGYVSKENRHDSVFKCKNCGFELNADLNASRNIEVIRVSEYFRLLSASQSLLFNETPLTGGAGDQRQAPKLLEHHHHHH”, for which the “soluble on expression in E. coli” value is “soluble”.

In the case of “MGPKRRQLTFREKSRIIQEVEENPDLRKGEIARRFNIPPSTLSTILKNKRAILASERKYGVASTCRKTNKLSPYDKLEGLLIAWFQQIRAAGLPVKGIILKEKALRIAEELGMDDFTASNGWLDRFRRRRS”, the “soluble on expression in E. coli” value is on record as “soluble”.

Regarding “MGQKMKNAPVYFTIAQVRHNPVLRLGSYAPDIQDRMRKAGYPDFKKGIAMAFTLAPQLGDAPQTQPPVVEQVERLMFFSTDSTRGFIVEQNALSFHTTEYETFEALADEFMRGLAIVHECVTLAHSERIGLRYLDAVVPPGGETGLAEYLAPGVLGLSSRLPEDVTVSHSFSETHIQTAKCAVLARTIIQSGPLGFPMDLQPIGVKVADRFREINGVHAIVDTDASIEGRHPFNLELIKSQLQVLRDGVGIAFDATVTPIAVSAWNS”, the “soluble on expression in E. coli” value is reported as “not soluble”.

For “MGREFLDLFEQWAESYDRSVEGYDEQYRDVFAGYDRILSTVADKAGQVVLEFGVGTGNLTKKLLERGKRVYGIEPSAPMRKKAAEKLNGRAVILEGDFLQFPTPPEPIDTIASTYAFHHLTDAEKDEALAKYSQLLHPGGKIVFADTAFRDKEAFRQAIEEARARGFHDLADDLEREYYTTLDVLASLFSKHGFSASFAQQNAFVWVMEAVKQTT”, the “soluble on expression in E. coli” value was “not soluble”.

Take “MGRGRSSSSSSIESSSKSNPFGASSSTRNLSTDLRLGLSFGTSSGTQYFNGGYGYSVAAPAVEDAEYVAAVEEEEENECNSVGSFYVKVNMEGVPIGRKIDLMSLNGYRDLIRTLDFMFNASILWAEEEDMCNEKSHVLTYADKEGDWMMVGDVPWEMFLSTVRRLKISRANYHY”: the “soluble on expression in E. coli” value was “soluble”.

With “MGRLSGKTILVTGAASGIGRAALDLFAREGASLVAVDREERLLAEAVAALEAEAIAVVADVSDPKAVEAVFAEALEEFGRLHGVAHFAGVAHSALSWNLPLEAWEKVLRVNLTGSFLVARKAGEVLEEGGSLVLTGSVAGLGAFGLAHYAAGKLGVVGLARTLALELARKGVRVNVLLPGLIQTPMTAGLPPWAWEQEVGASPLGRAGRPEEVAQAALFLLSEESAYITGQALYVDGGRSIVGPPGLPPGFGPKGGERHAHVL”, the “soluble on expression in E. coli” value is “soluble”.

As for “MGSDAKNLMSDGNVQIVKTGEVIGATQLTEGELIVEAGGRAENTVVTGAGWLKVATGGIAKCTQYGNNGTLSVSDGAIATDIVQSEGGAISLSTLATVNGRHPEGEFSVDKGYACGLLLENGGNLRVLEGHRAEKIILDQEGGLLVNGTTSAVVVDEGGELLVYPGGEASNCEINQGGVFMLAGKASDTLLAGGTMNNLGGEDSDTIVENGSIYRLGTDGLQLYSSGKTQNLSVNVGGRAEVHAGTLENAVIQGGTVILLSPTSADENFVVEEDRAPVELTGSVALLDGASMIIGYGAELQQSTITVQQGGVLILDGSTVKGDSVTFIVGNINLNGGKLWLITDAATHVQLKVKRLRGEGAICLQTSAKEISPDFINVKGEVTGDIHVEITDASRQTLCNALKLQPDEDGIGATLQPA”, the “soluble on expression in E. coli” value is given as “soluble”.

With “MGSDKIHHHHHHAADVSFPDAVRKVAVINNMPVLKTKDNHEILSSELEGDGKVASEALAENIANVNYFDQVIICDSVFRAQDKVPRVNVILTKEEVRKLSEDLGVDMILSFDRIHIQTKPGVLFYPDFPMPIDAVDGIISPIVRVYIPNRDKPLFVVAKQDTISWEIEPALSDRKIVKEASEYAASIPVEHLLPHWDEVARFYYDGGNIEMRDAGVYLRENNWDEAYSQWKIAYEKRKGQQKMKAAFNIALYYEIKDNVEQAKEWLGKAKKLVKSGSRDEQLIAFYSLELEKRGSKLSQLRIQMKRFDDNF”, the “soluble on expression in E. coli” value was “not soluble”.

For the sequence “MGSDKIHHHHHHACEEEGLGNEETPFAPYVLSLGINSNGTTTYYVVTAPELMSGTINAVAKGIEQNGYRDYEQAGQTVFSIGGLGLTSATGIVRDANGYLTERGDFVFNSSLNAFTQMDGQNMIGLELPANKESGDQMTLYTVNISDVSITSQVKAPVFPLNQLEWPSITGMCYSEGNVYVTYFPMNPSTFETLYTDTTFVAVYSYPDMQFKTLMKDTRTGPAGSWNAFNGIFKVESGDMYIMSNSAIANGFSQSTKNAAFLRIPKGETHFDDYYFDFETVSGGLKPAHIKYIGNGLVFAEVSTISPQTSADRWGDKSLKCCIIDLNNKTVRDIKEIPVHNGDGGRRFAALVDGGYVYRPVTASEGTYIYQVDPQAATAVRGAKVSTTFVGGFFRLD”, the “soluble on expression in E. coli” value is listed as “not soluble”.

On to “MGSDKIHHHHHHACRQVATESRVQPASFEVGSSMIADTFFLDSLSLFMPETNEEALINNIDRVYESNGRYFILDKRMKQVLCYTLSGKHLFTIHAVGNGKGEYVDLFDIAIDEAENKLLLLTYPSQILYYDLEGTYLSSYPLDDTYQSFAVDKGFIYLRNDTYANGVVSDYSLIVINKETGKQTSLLEPLYETAPFCSSGNYQITNTASVLFTRKFDNHIYRITGESIEPLYMVDWKDKAFPESDKQRQFQCNDLNQLCYQGKYVYTMTDLCDTPSYLLFRTNQPGMCLLSKATSTVNNYQVIINTDYQLPLPNYMSVEGKQSRIFFIYSSEVLCEQKKLSAEEDINEKMSSLLGQIKEGDNPVIFTYHVK”, for which the “soluble on expression in E. coli” value is given as “not soluble”.

As to “MGSDKIHHHHHHADDDTPVVTLGTSLTDSQRNGTLKTLTAPLNGGNYQTITVTGSDLVKYLNPSGDNFTTSSGVWSSAMIQKTSSGSGINVKILDYNGKNNITTITANQYKNAALTAGITDANIYVTSAVPIDGSGALAGVYAAYAKNGNALNQKQVNAAQDEMNTLSGITQDNKNKEGYSDAQLNNAVAGAKSEMAKQGQNISDSQIRDIVNNQININHLGNTINNNQKNQIVNLLIEIRDSGALKNGSFKSQASKLSSQIQNGAKNIFNKFNTQENRSWLQQLWDNVVNFFSHIFG”, the “soluble on expression in E. coli” value is on record as “not soluble”.
